Data: article PMC2901514 (The Febs Journal, 2010)

Molecular target: the molecule itself
Test: SEC

B1: CMP-Neu5Ac synthetase (CNS) from Neisseria meningitidis, K142A mutant (enzyme)
chain: MEKQNIAVILARQNSKGLPLKNLRKMNGISLLGHTINAAISSKCFDRIIVSTDGGLIAEEAKNFGVEVVLRPAELASDTASSISGVIHALETIGSNSGTVTLLQPTSPLRTGAHIREAFSLFDEKIKGSVVSACPMEHHPLATLLQINNGEYAPMRHLSDLEQPRQQLPQAFRPNGAIYINDTASLIANNCFFIAPTKLYIMSHQDSIDIDTELDLQQAENILNHKES
B1 was tested, and the “stoichiometry N” value was 2.
